Tested on: MS2 coat protein
Assay: apparent KD of MS2 coat protein; designed switch direction (-1 OFF switch, 1 ON switch): -1; higher = weaker reporter binding
Method in brief: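 On Illumina chips, designed RNA switches with common flanks were made by stalled E. coli RNA polymerase. Titrations with SNAP-549-labelled MS2 coat protein, doubling from 0.7 or 1.5 nM to 3 µM, were done with no input, with 200 uM small-molecule ligand, or with an oligonucleotide input. Apparent KD is the median per design over clusters, from curve fits of normalised cluster fluorescence.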

[1] = Eterna round: R95, input ligand: FMN 200 uM
[2] = Eterna round: R95, input ligand: microRNA oligo, concentration not stated
[3] = Eterna round: R95, input ligand: none
[4] = input ligand: microRNA oligo, concentration not stated

Sequence	apparent KD of MS2 coat protein (input ligand: FMN 200 uM) [nM]	apparent KD of MS2 coat protein (input ligand: none) [nM]	apparent KD of MS2 coat protein [1] [nM]	apparent KD of MS2 coat protein [2] [nM]	apparent KD of MS2 coat protein [3] [nM]	apparent KD of MS2 coat protein [4] [nM]
CAGCCAAGUGUGAGGAUAUGGCGAUUGCAUUGACGUCAGAAGGCACAUGAGGAUCACCCAUGUGAGGUGGAUGA [Eternabot (L2) Solution 25] (Eterna round: R97, puzzle: Brourd's mod of Exclusion 4)	45.8	755	–	–	–	–
GAUUAACAUGAGGAUCACCCAUGUGAGGAUAUUGACUUGCUCACUUUCCCAUUAGAGUCGAGAAGGCGCAUCUG [1986#19] (Eterna round: R97, puzzle: Exclusion 1)	34.9	60.5	–	–	–	–
GGCAGACAUGAGGAUCACCCAUGUCAGGAUAUGGUGCGAUCGUCGAUAGACGAUAGCACCAGAAGGGACAUGCC [Mat - Exclusion 1 - Eli Mod - D3] (Eterna round: R97, puzzle: Exclusion 1)	39.7	21.4	–	–	–	–
GCAGUGCGAGGAUAUACAUGAGGAUCACCCAUGUGAGAGAAAUAAGUGAGGAAGAAAAGUAGAAGGCGCGUUGG [Mat - Exclusion 3 - Mod of Salish D69] (puzzle: Exclusion 3)	–	–	95.2	40.8	69.1	–
UUGCCACAUGAGGAUCACCCAUGUGAGGAUAUGGCCCGCCCGGCGUGUGCUGGUUCUGUCAGAAGGCGCGUGGG [salish99_ex1_r4_030] (Eterna round: R97, puzzle: Exclusion 1)	73	33.1	–	–	–	–
GAAUAGGCAGGAUAUACAUGAGGAUCACCCAUGUGCCGGCGAAAGGUACGUUCGAAAGGUAGAAGGGCCUAAAC [ChP 13.04.2015 #7] (Eterna round: R96, puzzle: Exclusion 3)	176	41.8	–	–	–	36.7
GGGUGCAGGCUGAGGUCCUACAUGAGGAUCACCCAUGUGGUCCGGUGACGUGAGUCACCGGACUUAGCUCGUCUUGU [salish99_S_TOV1_R5_009] (Eterna round: R97, puzzle: Sensor, turn-off variant 1)	82	97.8	–	–	–	–
GCUGGUCAAGGAUAUGCAAUCGUGCUUCGGCACGUAAGGUCACAUGAGGAUCACCCAUGUAGAAGGUGACCAGC [E2/4-C1] (Eterna round: R97, puzzle: Exclusion 2)	27.8	18.4	–	–	–	–
UCACGUUAGGAGGAUAUCGAUCCAUUAGCGCGACGAGAAGGCCUGACAUGAGGAUCACCCAUGUGGUCAAACAA [Bexelaar] (puzzle: Exclusion 6)	–	–	52.1	265	158	–
GCAAGCUUUUUCAAUAAGAACAUGAGGAUCACCCAUGUUUAAGGUAUUACUUUUGGGCUCUUUAGUGCUCGUCUUAU [JR_STOV1_Sub035] (Eterna round: R97, puzzle: Sensor, turn-off variant 1)	17.9	18.2	–	–	–	–
CCUUGACAUGAGGAUCACCCAUGUGAGGAUAUGAUGCGAUCGUCGAAAGACGAUAGCAUCAGAAGGCACAUAUG [Fiskers Ex 1 - 8] (Eterna round: R96, puzzle: Exclusion 1)	91.8	24.4	–	–	–	12.8
AAUUAGUGUGUGAGGAUAUUGGUGGAAUGACUUAUUAAGAAGGCACAUGAGGAUCACCCAUGUGGGAAGUCACG [JR_BMEx4_Sub014] (Eterna round: R97, puzzle: Brourd's mod of Exclusion 4)	10.1	12	–	–	–	–
UGCCUAUGAGGAUAUACAUUGAAUAAGAUUCAUGUAAAACUACAUGAGGAUCACCCAUGUAGAAGGCAUGGGCU [Mat - Exclusion 2 - JL Mod - D70] (Eterna round: R97, puzzle: Exclusion 2)	29	19.1	–	–	–	–
GUGUAGAUAGGAUAUGCUUUGAGCUUAUGAGAGUAUGCUCGACAUGAGGAUCACCCAUGUAGAAGGGUUUACAC [LRO-Excl2-04] (puzzle: Exclusion 2)	–	–	–	68.5	–	–
UACUUCCGAGGAUAUACAUGAGGAUCACCCAUGUGCUUCAGCAUUGAAAGAUGCAUGGGUAGAAGGCGGUAGUU [LRO-Excl3-18] (puzzle: Exclusion 3)	–	–	253	297	171	–
CGGCGACAUGAGGAUCACCCAUGUGAGGAUAUGACGGGAAAAGCGUGAGCGGUUUGUGUCAGAAGGCGCGUAGG [salish99_ex1_r4_084] (Eterna round: R97, puzzle: Exclusion 1)	20.8	28.7	–	–	–	–
UGGUAAUCAGUUAGGAUAUCAUCCGGCGUUGUCGGUGAGAAGGAACAUGAGGAUCACCCAUGUAUCGAUUUUAG [BmEX4 B.13] (Eterna round: R97, puzzle: Brourd's mod of Exclusion 4)	26.5	19	–	–	–	–

— the supplement of paper PMC9170038
